Columns and labels:
[1] = tested on: PPIs of the SKEMPI data set (by PDBID); settings: single mutation to alanine, sheet sortedByGroup, r_group FAMILYVW; ref SKEMPI; cited from earlier work
[2] = tested on: PPIs of the SKEMPI data set (by PDBID); assay: SKEMPI experimental ΔΔG, single mutations to alanine; format: binding; settings: class of the SKEMPI experimental ΔΔG

B1: 1DAN YU94A (protein, UniProt P13726 33-251, looked up, variant Y94A)
extracellular domain: SGTTNTVAAYNLTWKSTNFKTILEWEPKPVNQVYTVQISTKSGDWKSKCFYTTDTECDLTDEIVKDVKQTYLARVFSYPAGNVESTGSAGEPLAENSPEFTPYLETNLGQPTIQSFEQVGTKVNVTVEDERTLVRRNNTFLSLRDVFGKDLIYTLYYWKSSSSGKKTAKTNTNEFLIDVDKGENYCFSVQAVIPSRTVNRKSTDSPVECMGQEKGEFRE
modifications: extracellular domain
[1]
  sk_ddG_kJ (SKEMPI experimental ΔΔG): 4.31 kJ
[2]
  sk_class: Positive (positive (a hot residue) ΔΔG ≥ 4.184 kJ/mol)

B2: 1DAN VU146A (protein, UniProt P13726 33-251, looked up, variant V146A)
extracellular domain: SGTTNTVAAYNLTWKSTNFKTILEWEPKPVNQVYTVQISTKSGDWKSKCFYTTDTECDLTDEIVKDVKQTYLARVFSYPAGNVESTGSAGEPLYENSPEFTPYLETNLGQPTIQSFEQVGTKVNVTVEDERTLVRRNNTFLSLRDAFGKDLIYTLYYWKSSSSGKKTAKTNTNEFLIDVDKGENYCFSVQAVIPSRTVNRKSTDSPVECMGQEKGEFRE
modifications: extracellular domain
[1]
  sk_ddG_kJ (SKEMPI experimental ΔΔG): 0.84 kJ
[2]
  sk_class: Neutral (neutral (little effect) 4.184 kJ/mol < ΔΔG > −4.184 kJ/mol)

B3: 1DAN IU152A (protein, UniProt P13726 33-251, looked up, variant I152A)
extracellular domain: SGTTNTVAAYNLTWKSTNFKTILEWEPKPVNQVYTVQISTKSGDWKSKCFYTTDTECDLTDEIVKDVKQTYLARVFSYPAGNVESTGSAGEPLYENSPEFTPYLETNLGQPTIQSFEQVGTKVNVTVEDERTLVRRNNTFLSLRDVFGKDLAYTLYYWKSSSSGKKTAKTNTNEFLIDVDKGENYCFSVQAVIPSRTVNRKSTDSPVECMGQEKGEFRE
modifications: extracellular domain
[1]
  sk_ddG_kJ (SKEMPI experimental ΔΔG): 0.75 kJ
[2]
  sk_class: Neutral (neutral (little effect) 4.184 kJ/mol < ΔΔG > −4.184 kJ/mol)

B4: 1DAN FU140A (protein, UniProt P13726 33-251, looked up, variant F140A)
extracellular domain: SGTTNTVAAYNLTWKSTNFKTILEWEPKPVNQVYTVQISTKSGDWKSKCFYTTDTECDLTDEIVKDVKQTYLARVFSYPAGNVESTGSAGEPLYENSPEFTPYLETNLGQPTIQSFEQVGTKVNVTVEDERTLVRRNNTALSLRDVFGKDLIYTLYYWKSSSSGKKTAKTNTNEFLIDVDKGENYCFSVQAVIPSRTVNRKSTDSPVECMGQEKGEFRE
modifications: extracellular domain
[1]
  sk_ddG_kJ (SKEMPI experimental ΔΔG): 5.40 kJ
[2]
  sk_class: Positive (positive (a hot residue) ΔΔG ≥ 4.184 kJ/mol)

B5: 1DAN YU157A (protein, UniProt P13726 33-251, looked up, variant Y157A)
extracellular domain: SGTTNTVAAYNLTWKSTNFKTILEWEPKPVNQVYTVQISTKSGDWKSKCFYTTDTECDLTDEIVKDVKQTYLARVFSYPAGNVESTGSAGEPLYENSPEFTPYLETNLGQPTIQSFEQVGTKVNVTVEDERTLVRRNNTFLSLRDVFGKDLIYTLYAWKSSSSGKKTAKTNTNEFLIDVDKGENYCFSVQAVIPSRTVNRKSTDSPVECMGQEKGEFRE
modifications: extracellular domain
[1]
  sk_ddG_kJ (SKEMPI experimental ΔΔG): 0.00 kJ
[2]
  sk_class: Neutral (neutral (little effect) 4.184 kJ/mol < ΔΔG > −4.184 kJ/mol)

B6: 1DAN VU179A (protein, UniProt P13726 33-251, looked up, variant V179A)
extracellular domain: SGTTNTVAAYNLTWKSTNFKTILEWEPKPVNQVYTVQISTKSGDWKSKCFYTTDTECDLTDEIVKDVKQTYLARVFSYPAGNVESTGSAGEPLYENSPEFTPYLETNLGQPTIQSFEQVGTKVNVTVEDERTLVRRNNTFLSLRDVFGKDLIYTLYYWKSSSSGKKTAKTNTNEFLIDADKGENYCFSVQAVIPSRTVNRKSTDSPVECMGQEKGEFRE
modifications: extracellular domain
[1]
  sk_ddG_kJ (SKEMPI experimental ΔΔG): 0.46 kJ
[2]
  sk_class: Neutral (neutral (little effect) 4.184 kJ/mol < ΔΔG > −4.184 kJ/mol)

B7: 1DAN LU133A (protein, UniProt P13726 33-251, looked up, variant L133A)
extracellular domain: SGTTNTVAAYNLTWKSTNFKTILEWEPKPVNQVYTVQISTKSGDWKSKCFYTTDTECDLTDEIVKDVKQTYLARVFSYPAGNVESTGSAGEPLYENSPEFTPYLETNLGQPTIQSFEQVGTKVNVTVEDERTAVRRNNTFLSLRDVFGKDLIYTLYYWKSSSSGKKTAKTNTNEFLIDVDKGENYCFSVQAVIPSRTVNRKSTDSPVECMGQEKGEFRE
modifications: extracellular domain
[1]
  sk_ddG_kJ (SKEMPI experimental ΔΔG): -0.08 kJ
[2]
  sk_class: Neutral (neutral (little effect) 4.184 kJ/mol < ΔΔG > −4.184 kJ/mol)

— PMC6804253, “Predicting and Experimentally Validating Hot-Spot Residues at Protein–Protein Interfaces” (ACS Chemical Biology, 2019)
